Laboratory results published in patent publication US20260209320A1 (ALCHEMAB THERAPEUTICS, published 2026).

Experiments:
Peptide 2 [1] = target: T1, Peptide 2 (human, cyno); assay: peptide microarray; Sp C2; IgG 1 µg/ml
T1 peptide: QQQQQQQPPPPPPPP

Peptide 24 = target: T2, Peptide 24 (cyno); assay: peptide microarray; Sp C2; IgG 1 µg/ml
T2 peptide: QQQQQQQQQPPPPPP

Peptide 31 = target: T3, Peptide 31 (cyno); assay: peptide microarray; Sp C2; IgG 1 µg/ml
T3 peptide: LPQPQPPPPPPPPPP

Peptide 29 = target: T4, Peptide 29 (cyno); assay: peptide microarray; Sp C2; IgG 1 µg/ml
T4 peptide: PMLPQPQPPPPPPPP

Peptide 28 = target: T5, Peptide 28 (cyno); assay: peptide microarray; Sp C2; IgG 1 µg/ml
T5 peptide: QPMLPQPQPPPPPPP

Peptide 3 [2] = target: T6, Peptide 3 (human, cyno); assay: peptide microarray; Sp C2; IgG 1 µg/ml
T6 peptide: QQQQQQPPPPPPPPP

Peptide 30 = target: T7, Peptide 30 (cyno); assay: peptide microarray; Sp C2; IgG 1 µg/ml
T7 peptide: MLPQPQPPPPPPPPP

Peptide 4 [3] = target: T8, Peptide 4 (human, cyno); assay: peptide microarray; Sp C2; IgG 1 µg/ml
T8 peptide: QQQQQPPPPPPPPPP

Peptide 1 [4] = target: T9, Peptide 1 (human, cyno); assay: peptide microarray; Sp C2; IgG 1 µg/ml
T9 peptide: QQQQQQQQPPPPPPP

Peptide 21 [5] = target: T10, Peptide 21 (cyno); assay: peptide microarray; Sp C2; IgG 1 µg/ml
T10 peptide: AQPMLPQPQPPPPPP

Peptide 26 = target: T11, Peptide 26 (cyno); assay: peptide microarray; Sp C2; IgG 1 µg/ml
T11 construct: the array is said to hold 15-mers
T11 peptide: QPPPPPPPPPPPPQL

Peptide 25 = target: T12, Peptide 25 (cyno); assay: peptide microarray; Sp C2; IgG 1 µg/ml
T12 peptide: QQPPPPPPPPPPPPQ

Peptide 18 [6] = target: T13, Peptide 18 (cyno); assay: peptide microarray; Sp C2; IgG 1 µg/ml
T13 peptide: QQQPPPPPPPPPPPP

Epitope 1 [7] = target: T14, Epitope 1 (human, cyno); assay: peptide microarray; Sp C2; IgG 1 µg/ml
T14 peptide: QQQQPPPPPPPPPPP

Peptide 2 [8] = target: T1, Peptide 2; assay: peptide microarray; Sp C1; IgG 10 µg/ml
Peptide 22 [9] = target: T15, Peptide 22 (cyno); assay: peptide microarray; Sp C1; IgG 10 µg/ml
T15 peptide: QPMLPQPQPPPPPPR

Peptide 3 [10] = target: T6, Peptide 3; assay: peptide microarray; Sp C1; IgG 10 µg/ml
Peptide 4 [11] = target: T8, Peptide 4; assay: peptide microarray; Sp C1; IgG 10 µg/ml
Peptide 1 [12] = target: T9, Peptide 1; assay: peptide microarray; Sp C1; IgG 10 µg/ml
Peptide 21 [13] = target: T10, Peptide 21; assay: peptide microarray; Sp C1; IgG 10 µg/ml
Peptide 18 [14] = target: T13, Peptide 18; assay: peptide microarray; Sp C1; IgG 10 µg/ml
Epitope 1 [15] = target: T14, Epitope 1; assay: peptide microarray; Sp C1; IgG 10 µg/ml
Peptide 2 [16] = target: T1, Peptide 2; assay: peptide microarray; Sp C1; IgG 1 µg/ml
Peptide 22 [17] = target: T15, Peptide 22; assay: peptide microarray; Sp C1; IgG 1 µg/ml
Peptide 3 [18] = target: T6, Peptide 3; assay: peptide microarray; Sp C1; IgG 1 µg/ml
Peptide 4 [19] = target: T8, Peptide 4; assay: peptide microarray; Sp C1; IgG 1 µg/ml
Peptide 1 [20] = target: T9, Peptide 1; assay: peptide microarray; Sp C1; IgG 1 µg/ml
Peptide 21 [21] = target: T10, Peptide 21; assay: peptide microarray; Sp C1; IgG 1 µg/ml
Peptide 18 [22] = target: T13, Peptide 18; assay: peptide microarray; Sp C1; IgG 1 µg/ml
Epitope 1 [23] = target: T14, Epitope 1; assay: peptide microarray; Sp C1; IgG 1 µg/ml
Peptide 2 [24] = target: T1, Peptide 2; assay: peptide microarray; Sp H; IgG 10 µg/ml
Peptide 17 = target: T16, Peptide 17 (human); assay: peptide microarray; Sp H; IgG 10 µg/ml
T16 peptide: QPPPPPPPPPPGPAV

Peptide 13 = target: T17, Peptide 13 (human); assay: peptide microarray; Sp H; IgG 10 µg/ml
T17 peptide: LPQPQPPPPPPPPPP

Peptide 11 = target: T18, Peptide 11 (human); assay: peptide microarray; Sp H; IgG 10 µg/ml
T18 peptide: PLLPQPQPPPPPPPP

Peptide 12 = target: T19, Peptide 12 (human); assay: peptide microarray; Sp H; IgG 10 µg/ml
T19 peptide: LLPQPQPPPPPPPPP

Peptide 8 = target: T20, Peptide 8 (human); assay: peptide microarray; Sp H; IgG 10 µg/ml
T20 peptide: QAQPLLPQPQPPPPP

Peptide 3 [25] = target: T6, Peptide 3; assay: peptide microarray; Sp H; IgG 10 µg/ml
Peptide 7 = target: T21, Peptide 7 (human); assay: peptide microarray; Sp H; IgG 10 µg/ml
T21 peptide: PQAQPLLPQPQPPPP

Peptide 4 [26] = target: T8, Peptide 4; assay: peptide microarray; Sp H; IgG 10 µg/ml
Peptide 1 [27] = target: T9, Peptide 1; assay: peptide microarray; Sp H; IgG 10 µg/ml
Peptide 16 = target: T22, Peptide 16 (human); assay: peptide microarray; Sp H; IgG 10 µg/ml
T22 peptide: PQPPPPPPPPPPGPA

Epitope 1 [28] = target: T14, Epitope 1; assay: peptide microarray; Sp H; IgG 10 µg/ml

B1: ATL_0005335 (antibody, V domains shown)
VH: EVQLVESGGGLVKPGGSLRLSCAASGFTFNKAWMNWVRQAPGKGLEWVGRIKSGIDGGTTDYAAPVQGRFTISRDDSKNTVYLQMNSLNTEDTAVYYCIPPPYYYYYGLDVWGQGTTVTVSS
VL: QSALTQPASVSGSPGQSITISCTGTSSDIGSYNLVSWYQQHPGNAPKPLIYEGSKRPSGVSARFSGSKSGNTASLTISGLQPEDEADYYCSSYAGFNTLVFGGGTKVTVL
notes: human IgG1; also called ATL_5335
B1 was tested, and the corrected fluorescence intensity (Peptide 2 [1]) was 1160, the corrected fluorescence intensity (Peptide 24) was 562 and the corrected fluorescence intensity (Peptide 31) was 1000. For the same binder, the corrected fluorescence intensity (Peptide 29) was 523, the corrected fluorescence intensity (Peptide 28) was 421 and the corrected fluorescence intensity (Peptide 3 [2]) was 1220. It also gave a corrected fluorescence intensity (Peptide 30) of 772, a corrected fluorescence intensity (Peptide 4 [3]) of 1110 and a corrected fluorescence intensity (Peptide 1 [4]) of 990. The corrected fluorescence intensity (Peptide 21 [5]) was 168, the corrected fluorescence intensity (Peptide 26) was 128 and the corrected fluorescence intensity (Peptide 25) was 507. It also gave a corrected fluorescence intensity (Peptide 18 [6]) of 1270, a corrected fluorescence intensity (Epitope 1 [7]) of 1400 and a corrected fluorescence intensity (Peptide 2 [8]) of 2230. For the same binder, the corrected fluorescence intensity (Peptide 22 [9]) was 374, the corrected fluorescence intensity (Peptide 3 [10]) was 3540 and the corrected fluorescence intensity (Peptide 4 [11]) was 4320. The corrected fluorescence intensity (Peptide 1 [12]) was 0, the corrected fluorescence intensity (Peptide 21 [13]) was 2740 and the corrected fluorescence intensity (Peptide 18 [14]) was 4510. It also gave a corrected fluorescence intensity (Epitope 1 [15]) of 3340, a corrected fluorescence intensity (Peptide 2 [16]) of 667 and a corrected fluorescence intensity (Peptide 22 [17]) of 82. It also gave a corrected fluorescence intensity (Peptide 3 [18]) of 520, a corrected fluorescence intensity (Peptide 4 [19]) of 536 and a corrected fluorescence intensity (Peptide 1 [20]) of 381. It also gave a corrected fluorescence intensity (Peptide 21 [21]) of 443, a corrected fluorescence intensity (Peptide 18 [22]) of 474 and a corrected fluorescence intensity (Epitope 1 [23]) of 391. For the same binder, the corrected fluorescence intensity (Peptide 2 [24]) was 2100, the corrected fluorescence intensity (Peptide 17) was 166 and the corrected fluorescence intensity (Peptide 13) was 9010. For the same binder, the corrected fluorescence intensity (Peptide 11) was 6680, the corrected fluorescence intensity (Peptide 12) was 8520 and the corrected fluorescence intensity (Peptide 8) was 1510. For the same binder, the corrected fluorescence intensity (Peptide 3 [25]) was 3190, the corrected fluorescence intensity (Peptide 7) was 326 and the corrected fluorescence intensity (Peptide 4 [26]) was 3680. For the same binder, the corrected fluorescence intensity (Peptide 1 [27]) was 729, the corrected fluorescence intensity (Peptide 16) was 415 and the corrected fluorescence intensity (Epitope 1 [28]) was 3840.

B2: ATL_0005331 (antibody, V domains shown)
VH: B1 VH
VL: QSALTQPRSVSGSPGQSITISCTGTSSDVGSYNLVSWFQQHPGKAPKLIIYEVNKRPSGVPDRFSGSKSGNTASLTVSGLQAEDEADYYCGSYAGTNNVFGTGTKLTVL
notes: human IgG1; also called ATL_5331; Human IgG1 ATL_0005331
In the case of B2, the corrected fluorescence intensity (Peptide 2 [1]) is reported as 462, the corrected fluorescence intensity (Peptide 24) is reported as 146 and the corrected fluorescence intensity (Peptide 31) is reported as 294. It also gave a corrected fluorescence intensity (Peptide 29) of 156, a corrected fluorescence intensity (Peptide 28) of 152 and a corrected fluorescence intensity (Peptide 3 [2]) of 548. For the same binder, the corrected fluorescence intensity (Peptide 30) was 256, the corrected fluorescence intensity (Peptide 4 [3]) was 546 and the corrected fluorescence intensity (Peptide 1 [4]) was 259. For the same binder, the corrected fluorescence intensity (Peptide 21 [5]) was 154, the corrected fluorescence intensity (Peptide 26) was 141 and the corrected fluorescence intensity (Peptide 25) was 206. For the same binder, the corrected fluorescence intensity (Peptide 18 [6]) was 474, the corrected fluorescence intensity (Epitope 1 [7]) was 379 and the corrected fluorescence intensity (Peptide 2 [8]) was 1760. For the same binder, the corrected fluorescence intensity (Peptide 22 [9]) was 112, the corrected fluorescence intensity (Peptide 3 [10]) was 2290 and the corrected fluorescence intensity (Peptide 4 [11]) was 3150. For the same binder, the corrected fluorescence intensity (Peptide 1 [12]) was 378, the corrected fluorescence intensity (Peptide 21 [13]) was 1030 and the corrected fluorescence intensity (Peptide 18 [14]) was 3100. The corrected fluorescence intensity (Epitope 1 [15]) was 4160, the corrected fluorescence intensity (Peptide 2 [16]) was 118 and the corrected fluorescence intensity (Peptide 22 [17]) was 91. For the same binder, the corrected fluorescence intensity (Peptide 3 [18]) was 206, the corrected fluorescence intensity (Peptide 4 [19]) was 136 and the corrected fluorescence intensity (Peptide 1 [20]) was 0. For the same binder, the corrected fluorescence intensity (Peptide 21 [21]) was 182, the corrected fluorescence intensity (Peptide 18 [22]) was 137 and the corrected fluorescence intensity (Epitope 1 [23]) was 195. For the same binder, the corrected fluorescence intensity (Peptide 2 [24]) was 1340, the corrected fluorescence intensity (Peptide 17) was 16.2 and the corrected fluorescence intensity (Peptide 13) was 3960. The corrected fluorescence intensity (Peptide 11) was 2950, the corrected fluorescence intensity (Peptide 12) was 3490 and the corrected fluorescence intensity (Peptide 8) was 1140. For the same binder, the corrected fluorescence intensity (Peptide 3 [25]) was 1670, the corrected fluorescence intensity (Peptide 7) was 119 and the corrected fluorescence intensity (Peptide 4 [26]) was 2620. It also gave a corrected fluorescence intensity (Peptide 1 [27]) of 0, a corrected fluorescence intensity (Peptide 16) of 145 and a corrected fluorescence intensity (Epitope 1 [28]) of 2950.
